Here are results for one sequence from US6784153B1, “Methods of homing molecules to lung using membrane dipeptidase” (The Burnham Institute, priority 1998, dated 2004).

The target in test [1] is T1, MDP (Mus musculus, UniProt P31428).
T1 construct: The amplified 1.3 kb murine MDP cDNA was digested with KpnI and XbaI, and inserted into the same sites of the pcDNA3 expression vector; expressed in transfected cells; host or cells: COS-1 cells, pcDNA3 expression vector
T1 sequence (P31428 17-384): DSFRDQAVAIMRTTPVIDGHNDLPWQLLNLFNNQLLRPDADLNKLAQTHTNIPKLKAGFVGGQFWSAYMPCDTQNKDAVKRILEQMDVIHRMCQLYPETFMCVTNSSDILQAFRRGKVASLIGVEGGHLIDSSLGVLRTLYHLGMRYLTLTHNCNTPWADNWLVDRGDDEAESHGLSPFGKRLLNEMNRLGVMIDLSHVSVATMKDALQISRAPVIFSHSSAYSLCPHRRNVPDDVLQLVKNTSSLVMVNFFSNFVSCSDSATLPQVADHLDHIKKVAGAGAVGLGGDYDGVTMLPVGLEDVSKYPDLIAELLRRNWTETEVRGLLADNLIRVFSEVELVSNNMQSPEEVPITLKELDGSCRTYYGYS
Briefly: inhibition of MDP activity (hydrolysis of Gly-D-Phe, fluorimetric). The class given is biochemical, murine. The settings on record: Gly-D-Phe 0.5 mM; extracts from MDP-expressing COS-1 cells; listed as GFE-1. The method, then:
[…] […] Fluorescence was measured using an fmax fluorescence microplate reader from Molecular Devices (Sunnyvale, Calif.).
Phage binding to COS-1 cells transfected with MDP was determined as follows. Briefly, 10^7 COS-1 cells were transfected with 10 μg of either the MDP expression vector or the vector alone. After 48 hours, cells were scraped gently from the dish, washed once, and subjected to the phage binding assay or membrane dipeptidase activity assay described above. For the phage binding assay, 5×10^6 cells and 10^10 transducing units (TU) of phage input were used. For measurement of membrane dipeptidase activity, 10^6 cells were lysed in 100 μl of PBS/octylglycoside without protease inhibitors. A 10 μl aliquot of the extract was used to measure MDP activity.
Fluorimetric detection of D-Phe was performed as described above.

Test [2] concerns C8161 human melanoma cells. As to the kind of experiment: experimental lung metastasis of C8161 human melanoma cells. Type of test: in vivo, mice. The settings on record: 10^5 C8161 cells coadministered with 250 μg peptide, tail vein; five weeks after injection; listed as GFE-1. The method, then:
Experimental lung metastasis was induced in mice using C8161 human melanoma cells essentially as described in Arap et al., Science 279:377-380 (1998) and Pasqualini et al., Nature Med. 11:1197-1203, each of which is incorporated herein by reference. Briefly, C8161 cells were cultured to 75% confluence and then collected with 2.5 mM EDTA/PBS. The C8161 cancer cells were injected into the tail vein of female nude BALB/c mice (two months old) at a concentration of 10^5 cells per animal. Two sets of five mice were injected with the cells alone; cells with 250 μg control CARAC peptide (SEQ ID NO: 443) or cells with 250 μg GFE-1 peptide (SEQ ID NO: 1). Each injection was in a total volume of 200 μl.
Mice were sacrificed five weeks after injection, and the lungs collected and weighed.

Entries after “also recorded” stand apart in the source; their conditions may differ.

In the case of CGFECVRQCPERC [lung homing peptide], in test [1], the “inhibition of hydrolysis of Gly-D-Phe by MDP” value is given as “inhibits hydrolysis of the Gly-D-Phe substrate in a dose-dependent manner; also recorded: inhibited hydrolysis of the Gly-D-Phe substrate (0.5 mM) in a dose-dependent manner; also recorded: inhibition of MDP activity”. For the same sequence, the “lung metastasis (lung weight)” value in test [2] is reported as “inhibit experimental lung metastasis; also recorded: significantly less; also recorded: inhibits lung metastasis of human melanoma cells”.
